PMC3813429, “New Insight to Structure-Function Relationship of GalNAc Mediated Primary Interaction between Insecticidal Cry1Ac Toxin and HaALP Receptor of Helicoverpa armigera” (PLoS ONE, 2013)

Biological target: Cry1Ac WT toxin (Bacillus thuringiensis)
Test: SPR
Settings: both partners purified

B1: HaALP, membrane bound alkaline phosphatase of Helicoverpa armigera (receptor)
chain: HWLHPAAPAAASRAETSANYWAQDAQAAINARLERVESVKKAHNVIMFLGDGMSVPTLAAARTLLGQRQGKTGEETKLHFETFPTIGLVKTYCVDAQIADSACTATAYLCGVKNNYGAIGVDGTVRRGDCQAASNTATHVESIAEWALADGRDVGIVTTTRITHASPAGTFAKTANRTWENDGEVSQMGLDAKDCPDIAHQLVHHHPGNKFKVIFGGGRRAFLPNTVQDDEGSYGRRIDNRDLIQEWKNDKDSRNVSHQYLWQREQLMNLNDDLPEYMLGLFESSHMEYHLKSDPQTEPTLAELTEVAIRSLRRNEKGFFLFVEGGRIDHAHHDNLVELALDETLEMDKAVATATKMLSEDDSLIVVTADHAHVMTINGYSGRGNDILGPSRDVGRDRMPYMTLSYTNGPGFRPHVNDIRQNVTAEPNYRTLDWESHVDVPLVDETHGGDDVAVFARGPHHSMFTGLYEQSQLPHLMAYAACIGPGRHACASAAHLPSAHFFVALPALFISILLR
modifications: glycan with α-GalNAc at the non-reducing terminal (site not stated)
With B1 the Kd was 7.68 nM, the koff was 0.00129 s⁻¹ and the kon was 168000 M⁻¹ s⁻¹.
